Experimental findings from article PMC3832242 are described below.

This test has as its target linked SSB dimer with the D. radiodurans linker (SSB-LD-Drl) (E. coli | D. radiodurans). The test is described as follows: AUC.

The substance “linked SSB dimer with the D. radiodurans linker (SSB-LD-Drl)” returned a stoichiometry N of 2.
